For the data set, the system named is Escherichia coli TOP10. Briefly: shrunken log2 fold change of peptide-encoding DNA abundance (4.5 h post-induction vs induction); higher = less antimicrobial activity (less host growth inhibition). The settings on record: time post-induction: 4.5 h; library: site-saturation at positions 5, 18, 19, 20.

The record followed here is the supplement of paper PMC9112550, “Optimization of the antimicrobial peptide Bac7 by deep mutational scanning” (BMC Biology, 2022).
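Further: peptides expressed intracellularly from a pBAD plasmid library in pooled LB shake-flask culture, induced with 0.3% L-arabinose, DNA abundance read by NGS, three biological replicates, DESeq2 with apeglm shrinkage.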

For RRIRDRPPRLPRPRPRPKHFPRP, the “shrunken log2 fold change” value was -0.15.

Regarding RRIRPRPPRLPRPRPRPNVYPRP, the “shrunken log2 fold change” value was -0.177.

Turning to RRIRLRPPRLPRPRPRPGAEPRP, the “shrunken log2 fold change” value was found to be 0.505.

As for RRIRIRPPRLPRPRPRPWSYPRP, the “shrunken log2 fold change” value was -0.427.

With RRIRLRPPRLPRPRPRPPLKPRP, the “shrunken log2 fold change” value was found to be 0.253.

With RRIRIRPPRLPRPRPRPSSCPRP, the “shrunken log2 fold change” value was -0.17.

Take RRIRGRPPRLPRPRPRPTNIPRP: the “shrunken log2 fold change” value is 0.298.

For RRIRWRPPRLPRPRPRPSAEPRP, the “shrunken log2 fold change” value was found to be 1.14.

In the case of RRIRRRPPRLPRPRPRPNLYPRP, the “shrunken log2 fold change” value is -0.0246.

For the sequence RRIRTRPPRLPRPRPRPHFVPRP, the “shrunken log2 fold change” value was -0.239.

Consider RRIRLRPPRLPRPRPRPFCMPRP, for which the “shrunken log2 fold change” value was -0.623.

Consider RRIRCRPPRLPRPRPRPENLPRP, for which the “shrunken log2 fold change” value was -0.0208.

Regarding RRIRHRPPRLPRPRPRPSSHPRP, the “shrunken log2 fold change” value is -1.3.

For the sequence RRIRRRPPRLPRPRPRPTIAPRP, the “shrunken log2 fold change” value came to 0.0702.

Regarding RRIRYRPPRLPRPRPRPLFTPRP, the “shrunken log2 fold change” value is -0.962.

As to RRIRFRPPRLPRPRPRPCGWPRP, the “shrunken log2 fold change” value is 0.42.

As to RRIRFRPPRLPRPRPRPQLWPRP, the “shrunken log2 fold change” value is 0.338.

For the sequence RRIRFRPPRLPRPRPRPMFRPRP, the “shrunken log2 fold change” value came to 0.0591.

Take RRIRTRPPRLPRPRPRPEDNPRP: the “shrunken log2 fold change” value was found to be 0.168.

As for RRIRARPPRLPRPRPRPTDKPRP, the “shrunken log2 fold change” value stood at 0.391.

For RRIRERPPRLPRPRPRPDVRPRP, the “shrunken log2 fold change” value worked out at 0.0184.

With RRIRFRPPRLPRPRPRPAHQPRP, the “shrunken log2 fold change” value was -0.15.

As to RRIRWRPPRLPRPRPRPCTAPRP, the “shrunken log2 fold change” value was found to be 0.119.

Consider RRIRSRPPRLPRPRPRPWEVPRP, for which the “shrunken log2 fold change” value worked out at 0.188.

Consider RRIRVRPPRLPRPRPRPEVVPRP, for which the “shrunken log2 fold change” value was -0.0305.

As to RRIRYRPPRLPRPRPRPRIQPRP, the “shrunken log2 fold change” value is -0.203.

With RRIRYRPPRLPRPRPRPECEPRP, the “shrunken log2 fold change” value was -0.185.

Consider RRIRRRPPRLPRPRPRPVAAPRP, for which the “shrunken log2 fold change” value turned out to be 1.42.

Turning to RRIRYRPPRLPRPRPRPAQSPRP, the “shrunken log2 fold change” value is 0.256.

On to RRIRVRPPRLPRPRPRPWDYPRP, for which the “shrunken log2 fold change” value is -0.0898.

For the sequence RRIRRRPPRLPRPRPRPCCMPRP, the “shrunken log2 fold change” value was -0.18.

As to RRIRNRPPRLPRPRPRPCENPRP, the “shrunken log2 fold change” value was -0.0018.

As to RRIRVRPPRLPRPRPRPEAEPRP, the “shrunken log2 fold change” value stood at 0.807.

In the case of RRIRQRPPRLPRPRPRPMALPRP, the “shrunken log2 fold change” value was determined as 0.00414.

For the sequence RRIRNRPPRLPRPRPRPYAVPRP, the “shrunken log2 fold change” value was -0.0739.

Regarding RRIRRRPPRLPRPRPRPQYQPRP, the “shrunken log2 fold change” value is -0.207.

RRIRGRPPRLPRPRPRPSGWPRP: the “shrunken log2 fold change” value was determined as 1.52.

Regarding RRIRERPPRLPRPRPRPGCRPRP, the “shrunken log2 fold change” value was 0.0043.

As for RRIRGRPPRLPRPRPRPAVVPRP, the “shrunken log2 fold change” value is 0.488.

As for RRIRFRPPRLPRPRPRPLLGPRP, the “shrunken log2 fold change” value was determined as 0.123.

Take RRIRMRPPRLPRPRPRPKYGPRP: the “shrunken log2 fold change” value worked out at 0.0382.

For the sequence RRIRFRPPRLPRPRPRPCNHPRP, the “shrunken log2 fold change” value was -0.41.

Consider RRIRRRPPRLPRPRPRPNNQPRP, for which the “shrunken log2 fold change” value was -0.0752.

Take RRIRDRPPRLPRPRPRPWTDPRP: the “shrunken log2 fold change” value worked out at 0.023.

Turning to RRIRHRPPRLPRPRPRPQYNPRP, the “shrunken log2 fold change” value was -0.655.

As to RRIRLRPPRLPRPRPRPYISPRP, the “shrunken log2 fold change” value was -0.374.

Take RRIRTRPPRLPRPRPRPGADPRP: the “shrunken log2 fold change” value was found to be 0.301.

For the sequence RRIRKRPPRLPRPRPRPREVPRP, the “shrunken log2 fold change” value was determined as 0.538.

Regarding RRIRERPPRLPRPRPRPWIIPRP, the “shrunken log2 fold change” value was -0.269.

For the sequence RRIRHRPPRLPRPRPRPKTVPRP, the “shrunken log2 fold change” value was -0.154.

For RRIRHRPPRLPRPRPRPNVVPRP, the “shrunken log2 fold change” value was 0.015.

As for RRIRFRPPRLPRPRPRPYGCPRP, the “shrunken log2 fold change” value was -0.531.

For RRIRIRPPRLPRPRPRPGARPRP, the “shrunken log2 fold change” value is 0.251.

Consider RRIRTRPPRLPRPRPRPNPVPRP, for which the “shrunken log2 fold change” value was -0.0168.

For RRIRPRPPRLPRPRPRPGILPRP, the “shrunken log2 fold change” value is -0.557.

On to RRIRCRPPRLPRPRPRPHKVPRP, for which the “shrunken log2 fold change” value is -0.446.

RRIRIRPPRLPRPRPRPWSDPRP: the “shrunken log2 fold change” value is -0.0344.

For the sequence RRIRNRPPRLPRPRPRPIVCPRP, the “shrunken log2 fold change” value is -0.301.

In the case of RRIRFRPPRLPRPRPRPELQPRP, the “shrunken log2 fold change” value worked out at 0.348.

Take RRIRTRPPRLPRPRPRPFIDPRP: the “shrunken log2 fold change” value is -1.15.

On to RRIRCRPPRLPRPRPRPENWPRP, for which the “shrunken log2 fold change” value turned out to be 0.145.

As to RRIRERPPRLPRPRPRPPTGPRP, the “shrunken log2 fold change” value was 0.161.

As for RRIRVRPPRLPRPRPRPASLPRP, the “shrunken log2 fold change” value is -0.372.

In the case of RRIRHRPPRLPRPRPRPRAGPRP, the “shrunken log2 fold change” value was 0.638.

For RRIRPRPPRLPRPRPRPGVLPRP, the “shrunken log2 fold change” value was 0.219.

With RRIRFRPPRLPRPRPRPDHLPRP, the “shrunken log2 fold change” value was -0.00942.

With RRIRERPPRLPRPRPRPCQYPRP, the “shrunken log2 fold change” value is -0.138.

For the sequence RRIRSRPPRLPRPRPRPWTNPRP, the “shrunken log2 fold change” value was -0.0183.

Consider RRIRARPPRLPRPRPRPLYEPRP, for which the “shrunken log2 fold change” value came out at 0.000796.

With RRIRARPPRLPRPRPRPIKQPRP, the “shrunken log2 fold change” value was -0.0628.

As for RRIRHRPPRLPRPRPRPHMGPRP, the “shrunken log2 fold change” value is -0.238.

Consider RRIRPRPPRLPRPRPRPQWPPRP, for which the “shrunken log2 fold change” value is -0.0484.

In the case of RRIRPRPPRLPRPRPRPFFMPRP, the “shrunken log2 fold change” value is -0.196.

On to RRIRGRPPRLPRPRPRPATHPRP, for which the “shrunken log2 fold change” value was 0.862.

Regarding RRIRRRPPRLPRPRPRPWCHPRP, the “shrunken log2 fold change” value is -0.0754.

In the case of RRIRFRPPRLPRPRPRPQENPRP, the “shrunken log2 fold change” value is 0.133.

In the case of RRIRDRPPRLPRPRPRPSYRPRP, the “shrunken log2 fold change” value was 0.0164.

As to RRIRWRPPRLPRPRPRPTNVPRP, the “shrunken log2 fold change” value is -0.0165.

Take RRIRYRPPRLPRPRPRPAMTPRP: the “shrunken log2 fold change” value amounted to 0.165.

For RRIRPRPPRLPRPRPRPGCEPRP, the “shrunken log2 fold change” value came to 0.113.

With RRIRWRPPRLPRPRPRPWVGPRP, the “shrunken log2 fold change” value was 0.207.

Take RRIRLRPPRLPRPRPRPGVMPRP: the “shrunken log2 fold change” value was 0.0751.

On to RRIRCRPPRLPRPRPRPLTHPRP, for which the “shrunken log2 fold change” value is -0.345.

Take RRIRPRPPRLPRPRPRPRSKPRP: the “shrunken log2 fold change” value is -0.149.

Turning to RRIRPRPPRLPRPRPRPQNDPRP, the “shrunken log2 fold change” value is -0.371.

In the case of RRIRGRPPRLPRPRPRPCWDPRP, the “shrunken log2 fold change” value turned out to be 0.217.

Regarding RRIRFRPPRLPRPRPRPDTGPRP, the “shrunken log2 fold change” value is -0.356.

For the sequence RRIRNRPPRLPRPRPRPQEKPRP, the “shrunken log2 fold change” value is -0.198.

Take RRIRMRPPRLPRPRPRPEKRPRP: the “shrunken log2 fold change” value was found to be 0.0458.

Take RRIRMRPPRLPRPRPRPLFIPRP: the “shrunken log2 fold change” value is -0.643.

For RRIRRRPPRLPRPRPRPEENPRP, the “shrunken log2 fold change” value was 0.157.

Take RRIRQRPPRLPRPRPRPQQQPRP: the “shrunken log2 fold change” value is -0.0448.

On to RRIRKRPPRLPRPRPRPEDIPRP, for which the “shrunken log2 fold change” value is -0.00208.

Regarding RRIRPRPPRLPRPRPRPRNSPRP, the “shrunken log2 fold change” value was 0.0183.

On to RRIRSRPPRLPRPRPRPLLWPRP, for which the “shrunken log2 fold change” value came to 0.236.

Consider RRIRSRPPRLPRPRPRPPDFPRP, for which the “shrunken log2 fold change” value stood at 0.29.

For the sequence RRIRKRPPRLPRPRPRPKECPRP, the “shrunken log2 fold change” value was found to be 0.121.

As to RRIRQRPPRLPRPRPRPDYQPRP, the “shrunken log2 fold change” value is 0.00672.

As for RRIRRRPPRLPRPRPRPHDNPRP, the “shrunken log2 fold change” value is -0.13.

Take RRIRKRPPRLPRPRPRPCVGPRP: the “shrunken log2 fold change” value came out at 0.334.

RRIRMRPPRLPRPRPRPNTDPRP: the “shrunken log2 fold change” value is -0.196.

On to RRIRFRPPRLPRPRPRPEVLPRP, for which the “shrunken log2 fold change” value was -0.0031.

As to RRIRIRPPRLPRPRPRPPHCPRP, the “shrunken log2 fold change” value is -0.391.

Consider RRIRERPPRLPRPRPRPGCDPRP, for which the “shrunken log2 fold change” value was found to be 0.0125.

In the case of RRIRARPPRLPRPRPRPLQHPRP, the “shrunken log2 fold change” value came out at 1.22.

On to RRIRFRPPRLPRPRPRPQTWPRP, for which the “shrunken log2 fold change” value is -0.743.

As for RRIRIRPPRLPRPRPRPFDAPRP, the “shrunken log2 fold change” value was -0.0176.

Regarding RRIRIRPPRLPRPRPRPTWQPRP, the “shrunken log2 fold change” value worked out at 0.0597.

In the case of RRIRWRPPRLPRPRPRPKVIPRP, the “shrunken log2 fold change” value was -0.0585.

RRIRYRPPRLPRPRPRPTEDPRP: the “shrunken log2 fold change” value is -0.166.

In the case of RRIRWRPPRLPRPRPRPELAPRP, the “shrunken log2 fold change” value was found to be 0.758.

In the case of RRIRVRPPRLPRPRPRPCMEPRP, the “shrunken log2 fold change” value is -1.

As to RRIRLRPPRLPRPRPRPLGDPRP, the “shrunken log2 fold change” value is 0.015.

For the sequence RRIRPRPPRLPRPRPRPTRWPRP, the “shrunken log2 fold change” value is -0.0766.

RRIRRRPPRLPRPRPRPLKQPRP: the “shrunken log2 fold change” value came out at 0.223.

On to RRIRSRPPRLPRPRPRPEVSPRP, for which the “shrunken log2 fold change” value stood at 0.214.

As to RRIRSRPPRLPRPRPRPRDNPRP, the “shrunken log2 fold change” value was -0.0866.

As for RRIRSRPPRLPRPRPRPNCRPRP, the “shrunken log2 fold change” value is -0.0318.

In the case of RRIRLRPPRLPRPRPRPTDSPRP, the “shrunken log2 fold change” value worked out at 2.57.

In the case of RRIRYRPPRLPRPRPRPQNKPRP, the “shrunken log2 fold change” value is -0.969.

Regarding RRIRTRPPRLPRPRPRPTAQPRP, the “shrunken log2 fold change” value turned out to be 0.247.

In the case of RRIRFRPPRLPRPRPRPKEMPRP, the “shrunken log2 fold change” value is -0.0141.

Turning to RRIRDRPPRLPRPRPRPRYGPRP, the “shrunken log2 fold change” value was -0.0472.

As to RRIRYRPPRLPRPRPRPKHGPRP, the “shrunken log2 fold change” value is -0.413.

As to RRIRTRPPRLPRPRPRPPFGPRP, the “shrunken log2 fold change” value was 0.0407.
